Measurements: the supplement of paper PMC9170038

Test system: MS2 coat protein
Assay: apparent KD of MS2 coat protein; higher = weaker reporter binding
Settings: Eterna round: R107
Protocol: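 RNA-MaP round R107: designed RNA switches with theophylline, tryptophan, arginine or FMN aptamers are transcribed on-chip within common flanks. They are titrated with SNAP-549-labelled MS2 coat protein in RNA-MaP buffer (100 mM Tris pH 7.5, 80 mM KCl, 4 mM MgCl2), without ligand or with the indicated ligand. Median apparent KD per design.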

[1] = input ligand: theophylline 20 uM
[2] = input ligand: tryptophan 2.4 mM
[3] = input ligand: theophylline 2 mM

## ACAUAGAGAUUAAUCGUGGGCAUACUCGAUACCAGUAUUUUAACCUACCCUUGGCAGCGACAUGAGGAUCACCCAUGUGAGAUGA [XTheo A #9]
Input ligand: arginine 13.2 mM
  apparent KD of MS2 coat protein: 21.2 nM
[1]
  apparent KD of MS2 coat protein: 25.1 nM
[2]
  apparent KD of MS2 coat protein: 23 nM

## ACAUGAAGAACAGCGGUGGGCGCGCUCGAUACCAGUACUUUGAUAUACCCUUGGCAGCGACAUGAGGAUCACCCAUGUGAGAUGA [XTheo A #2]
Input ligand: arginine 13.2 mM
  apparent KD of MS2 coat protein: 16 nM
[1]
  apparent KD of MS2 coat protein: 23.9 nM
[2]
  apparent KD of MS2 coat protein: 18.1 nM

## ACAUGAGCAUCAGCCAUGUGUAUGACAUGACGAGGACCGGUACGGCCGCCACUCGACAUGAGGAUCACCCAUGUUGAGGAUCACA [Exclusion - Tryptophan A #1]
Input ligand: arginine 13.2 mM
  apparent KD of MS2 coat protein: 7.95 nM
[1]
  apparent KD of MS2 coat protein: 11.2 nM
[3]
  apparent KD of MS2 coat protein: 11.3 nM

## ACAUGAGGAUCACCCAUGUAAAUAACGGAAGGAGCGUGCAAAAGCACAGGUAGGUCGCCGAUAUAAAUAUUGGGUAUUAUAUUAU [AstrosExyArgA#2]
Input ligand: arginine 13.2 mM
  apparent KD of MS2 coat protein: 23.9 nM
Input ligand: none
  apparent KD of MS2 coat protein: 33.6 nM
[1]
  apparent KD of MS2 coat protein: 39.3 nM
[3]
  apparent KD of MS2 coat protein: 29 nM
[2]
  apparent KD of MS2 coat protein: 28.5 nM

## ACAUGAGGAUCACCCAUGUAAGUUUCAGAAGGAGCGUGAAUUAUCACAGGUAGGUCGCUGAAGUUUGCAUAUACUUAUAAAUGUA [JR_ExcArginiA_Sub006]
Input ligand: arginine 13.2 mM
  apparent KD of MS2 coat protein: 21 nM
Input ligand: none
  apparent KD of MS2 coat protein: 22.5 nM
[1]
  apparent KD of MS2 coat protein: 26.6 nM
[3]
  apparent KD of MS2 coat protein: 26.5 nM
[2]
  apparent KD of MS2 coat protein: 19.8 nM

## ACAUGAGGAUCACCCAUGUAAUGGCACGAUACCAGCUGAUCCCGUGGCCCUUGGCAGCGUCCGGUGUGGUCCGCCGGGUUGGACG [XXXMULLIN]
Input ligand: arginine 13.2 mM
  apparent KD of MS2 coat protein: 24.4 nM
[1]
  apparent KD of MS2 coat protein: 38.7 nM
[2]
  apparent KD of MS2 coat protein: 24.1 nM

## ACAUGAGGAUCACCCAUGUACAUGAGGGAAGGAGCGGUACAUGUGCCAGGUAGGUCGCCCAAGAGCAUCAGCCAUGUACAUCAGC [qasmullin]
Input ligand: arginine 13.2 mM
  apparent KD of MS2 coat protein: 43.5 nM
Input ligand: none
  apparent KD of MS2 coat protein: 131 nM
[1]
  apparent KD of MS2 coat protein: 131 nM
[3]
  apparent KD of MS2 coat protein: 90 nM
[2]
  apparent KD of MS2 coat protein: 80.5 nM

## ACAUGAGGAUCACCCAUGUAUGAUGUUCCUCGAGGACCGGUACGGCCGCCACUCGAACGAGUGGCACGCGAGUGCGCACUCGCGU [aXa]
Input ligand: arginine 13.2 mM
  apparent KD of MS2 coat protein: 22.1 nM
Input ligand: none
  apparent KD of MS2 coat protein: 14.2 nM
[1]
  apparent KD of MS2 coat protein: 19.6 nM
[3]
  apparent KD of MS2 coat protein: 14.9 nM
[2]
  apparent KD of MS2 coat protein: 11.7 nM

## ACAUGAGGAUCACCCAUGUAUUACCGGGAAGGAGCGCGUAAGGACGCAGGUAGGUCGCUCGGCGUCGUGCUGGAAAGCACGACGA [#1 Same State - Arginine A Attempt #23 (HarryS)]
Input ligand: arginine 13.2 mM
  apparent KD of MS2 coat protein: 12.9 nM
Input ligand: none
  apparent KD of MS2 coat protein: 14.1 nM
[1]
  apparent KD of MS2 coat protein: 20.7 nM
[3]
  apparent KD of MS2 coat protein: 17.9 nM
[2]
  apparent KD of MS2 coat protein: 15.1 nM

## ACAUGAGGAUCACCCAUGUCACGGCACGAUACCAGCUGAUCCGGUGGCCCUUGGCAGCGUCACGUUUGGUCCCGCGGAUGACACG [klmmullin]
Input ligand: arginine 13.2 mM
  apparent KD of MS2 coat protein: 29.4 nM
[1]
  apparent KD of MS2 coat protein: 89.6 nM
[2]
  apparent KD of MS2 coat protein: 65.5 nM

## ACAUGAGGAUCACCCAUGUCACGGCACGAUACCAGCUGAUCCGGUGGCCCUUGGCAGCGUGACGUUUGGUCCCGCGGAUGACACG [ppmullin]
Input ligand: arginine 13.2 mM
  apparent KD of MS2 coat protein: 96.5 nM
[1]
  apparent KD of MS2 coat protein: 142 nM
[2]
  apparent KD of MS2 coat protein: 137 nM

## ACAUGAGGAUCACCCAUGUCUGCCACUGAUACCAGCGGAAGAAAACGCCCUUGGCAGCAGAACAUGAGGAUCACCCAUGUAGGCU [Same State Theophylline A GF29]
Input ligand: arginine 13.2 mM
  apparent KD of MS2 coat protein: 39.6 nM
[1]
  apparent KD of MS2 coat protein: 166 nM
[2]
  apparent KD of MS2 coat protein: 140 nM

## ACAUGAGGAUCACCCAUGUGCAUCACCCGACGAGGACCGGUACGGCCGCCACUCGGGUAUAUAUUUACAUCGGGUGAUUUUACGU [#24 Tryptophan A Same State]
Input ligand: arginine 13.2 mM
  apparent KD of MS2 coat protein: 29.1 nM
[1]
  apparent KD of MS2 coat protein: 55.9 nM
[3]
  apparent KD of MS2 coat protein: 51.8 nM

## ACAUGAGGAUCACCCAUGUGCAUGAUGAUCCGAGGACCGGUACGGCCGCCACUCGUCAUGAUGAUCUUUCAUGUUUGUCGCGCGC [Flamini II]
Input ligand: arginine 13.2 mM
  apparent KD of MS2 coat protein: 62.6 nM
[1]
  apparent KD of MS2 coat protein: 326 nM
[3]
  apparent KD of MS2 coat protein: 422 nM

## ACAUGAGGAUCACCCAUGUGGCGACUUGAUACCAGACCCGCACUAGUCCCUUGGCAGCAACUACGUGAGGGUCACCCAUGUGAAG [vndullin]
Input ligand: arginine 13.2 mM
  apparent KD of MS2 coat protein: 35.5 nM
Input ligand: none
  apparent KD of MS2 coat protein: 20 nM
[1]
  apparent KD of MS2 coat protein: 29.3 nM
[3]
  apparent KD of MS2 coat protein: 28.9 nM
[2]
  apparent KD of MS2 coat protein: 18.3 nM

## ACAUGAGGAUCACCCAUGUGGCGACUUGAUACCAGACCCGCACUAGUCCCUUGGCAGCAACUACGUGUGGGACACCCAUGUUAAG [lplmullin]
Input ligand: arginine 13.2 mM
  apparent KD of MS2 coat protein: 17.3 nM
[1]
  apparent KD of MS2 coat protein: 22.7 nM
[2]
  apparent KD of MS2 coat protein: 16 nM

## ACAUGAGGAUCACCCAUGUUAAGCACAGAAGGAGCGUGAAGAAACACAGGUAGGUCGCUGUACUUAUCGAGCGUUAGCUCGAUAC [JR_Nu_SSArginiA_Sub029]
Input ligand: arginine 13.2 mM
  apparent KD of MS2 coat protein: 13.7 nM
Input ligand: none
  apparent KD of MS2 coat protein: 23.1 nM
[1]
  apparent KD of MS2 coat protein: 29 nM
[3]
  apparent KD of MS2 coat protein: 26.4 nM
[2]
  apparent KD of MS2 coat protein: 20.9 nM

## ACAUGAGGAUCACCCAUGUUCCUCAUUGAUACCAGUGAAAGAAGACGCCCUUGGCAGCGAGAAGAAGAAGAAGAAGAAGAAGAGG [6.A]
Input ligand: arginine 13.2 mM
  apparent KD of MS2 coat protein: 48.4 nM
Input ligand: none
  apparent KD of MS2 coat protein: 725 nM
[1]
  apparent KD of MS2 coat protein: 425 nM
[3]
  apparent KD of MS2 coat protein: 671 nM
[2]
  apparent KD of MS2 coat protein: 588 nM
